Source: patent US20140206609A1 (Sanofi, published 2014)
*1 amine or outer side, *2 acyl side, *3 side chain or, on linkers, in order; H or OH if unused. Where no end group is shown, it is not given here. Side-chain parts run from the residue outwards. [ ]: non-standard residue; d: D form. The star is where a group is joined. henicosanoyl = CCCCCCCCCCCCCCCCCCCCC(=O)*; γGlu = O=C(O)[C@H](CCC(=O)[*:2])N[*:1]; Stearoyl = CCCCCCCCCCCCCCCCCC(=O)*; Palmitoyl = CCCCCCCCCCCCCCCC(=O)*; Aib = CC(C)(N)C(=O)O; GABA = NCCCC(=O)O

T1: human GIP receptor (human, UniProt P48546 22-466)
T1 sequence (looked up): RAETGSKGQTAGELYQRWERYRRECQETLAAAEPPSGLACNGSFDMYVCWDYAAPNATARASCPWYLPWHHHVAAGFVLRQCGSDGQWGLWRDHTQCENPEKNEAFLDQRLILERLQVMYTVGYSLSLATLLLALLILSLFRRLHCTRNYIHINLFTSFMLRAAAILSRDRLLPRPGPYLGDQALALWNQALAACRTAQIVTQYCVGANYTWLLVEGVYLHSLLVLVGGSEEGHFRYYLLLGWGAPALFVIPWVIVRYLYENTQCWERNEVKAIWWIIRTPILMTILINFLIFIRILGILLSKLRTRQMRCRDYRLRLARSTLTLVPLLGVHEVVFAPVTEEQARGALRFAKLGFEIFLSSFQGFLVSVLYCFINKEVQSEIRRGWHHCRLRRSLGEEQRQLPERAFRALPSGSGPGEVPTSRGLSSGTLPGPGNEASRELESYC

B1: SEQ ID NO: 16 (peptide)
peptide: Y[Aib]EGTFTSDLSIQK([γGlu-γGlu-Stearoyl])EKRAA[Aib]EFIEWLKNTGPSSGAPPPS-NH2
modifications: N-terminus assumed
SMILES: CCCCCCCCCCCCCCCCCC(=O)N[C@@H](CCC(=O)N[C@@H](CCC(=O)NCCCC[C@H](NC(=O)[C@H](CCC(N)=O)NC(=O)[C@@H](NC(=O)[C@H](CO)NC(=O)[C@H](CC(C)C)NC(=O)[C@H](CC(=O)O)NC(=O)[C@H](CO)NC(=O)[C@@H](NC(=O)[C@H](Cc1ccccc1)NC(=O)[C@@H](NC(=O)CNC(=O)[C@H](CCC(=O)O)NC(=O)C(C)(C)NC(=O)[C@@H](N)Cc1ccc(O)cc1)[C@@H](C)O)[C@@H](C)O)[C@@H](C)CC)C(=O)N[C@@H](CCC(=O)O)C(=O)N[C@@H](CCCCN)C(=O)N[C@@H](CCCNC(=N)N)C(=O)N[C@@H](C)C(=O)N[C@@H](C)C(=O)NC(C)(C)C(=O)N[C@@H](CCC(=O)O)C(=O)N[C@@H](Cc1ccccc1)C(=O)N[C@H](C(=O)N[C@@H](CCC(=O)O)C(=O)N[C@@H](Cc1c[nH]c2ccccc12)C(=O)N[C@@H](CC(C)C)C(=O)N[C@@H](CCCCN)C(=O)N[C@@H](CC(N)=O)C(=O)N[C@H](C(=O)NCC(=O)N1CCC[C@H]1C(=O)N[C@@H](CO)C(=O)N[C@@H](CO)C(=O)NCC(=O)N[C@@H](C)C(=O)N1CCC[C@H]1C(=O)N1CCC[C@H]1C(=O)N1CCC[C@H]1C(=O)N[C@@H](CO)C(N)=O)[C@@H](C)O)[C@@H](C)CC)C(=O)O)C(=O)O
B2: SEQ ID NO: 17 (peptide)
peptide: Y[Aib]EGTFTSDLSIQK([GABA-Stearoyl])EKRAA[Aib]EFIEWLKNTGPSSGAPPPS-NH2
modifications: N-terminus assumed
SMILES: CCCCCCCCCCCCCCCCCC(=O)NCCCC(=O)NCCCC[C@H](NC(=O)[C@H](CCC(N)=O)NC(=O)[C@@H](NC(=O)[C@H](CO)NC(=O)[C@H](CC(C)C)NC(=O)[C@H](CC(=O)O)NC(=O)[C@H](CO)NC(=O)[C@@H](NC(=O)[C@H](Cc1ccccc1)NC(=O)[C@@H](NC(=O)CNC(=O)[C@H](CCC(=O)O)NC(=O)C(C)(C)NC(=O)[C@@H](N)Cc1ccc(O)cc1)[C@@H](C)O)[C@@H](C)O)[C@@H](C)CC)C(=O)N[C@@H](CCC(=O)O)C(=O)N[C@@H](CCCCN)C(=O)N[C@@H](CCCNC(=N)N)C(=O)N[C@@H](C)C(=O)N[C@@H](C)C(=O)NC(C)(C)C(=O)N[C@@H](CCC(=O)O)C(=O)N[C@@H](Cc1ccccc1)C(=O)N[C@H](C(=O)N[C@@H](CCC(=O)O)C(=O)N[C@@H](Cc1c[nH]c2ccccc12)C(=O)N[C@@H](CC(C)C)C(=O)N[C@@H](CCCCN)C(=O)N[C@@H](CC(N)=O)C(=O)N[C@H](C(=O)NCC(=O)N1CCC[C@H]1C(=O)N[C@@H](CO)C(=O)N[C@@H](CO)C(=O)NCC(=O)N[C@@H](C)C(=O)N1CCC[C@H]1C(=O)N1CCC[C@H]1C(=O)N1CCC[C@H]1C(=O)N[C@@H](CO)C(N)=O)[C@@H](C)O)[C@@H](C)CC
B3: SEQ ID NO: 19 (peptide)
peptide: Y[Aib]EGTFTSDLSIQK([γGlu-Stearoyl])EKRAAQEFIEWLKNTGPSSGAPPPS-NH2
modifications: N-terminus assumed
SMILES: CCCCCCCCCCCCCCCCCC(=O)N[C@@H](CCC(=O)NCCCC[C@H](NC(=O)[C@H](CCC(N)=O)NC(=O)[C@@H](NC(=O)[C@H](CO)NC(=O)[C@H](CC(C)C)NC(=O)[C@H](CC(=O)O)NC(=O)[C@H](CO)NC(=O)[C@@H](NC(=O)[C@H](Cc1ccccc1)NC(=O)[C@@H](NC(=O)CNC(=O)[C@H](CCC(=O)O)NC(=O)C(C)(C)NC(=O)[C@@H](N)Cc1ccc(O)cc1)[C@@H](C)O)[C@@H](C)O)[C@@H](C)CC)C(=O)N[C@@H](CCC(=O)O)C(=O)N[C@@H](CCCCN)C(=O)N[C@@H](CCCNC(=N)N)C(=O)N[C@@H](C)C(=O)N[C@@H](C)C(=O)N[C@@H](CCC(N)=O)C(=O)N[C@@H](CCC(=O)O)C(=O)N[C@@H](Cc1ccccc1)C(=O)N[C@H](C(=O)N[C@@H](CCC(=O)O)C(=O)N[C@@H](Cc1c[nH]c2ccccc12)C(=O)N[C@@H](CC(C)C)C(=O)N[C@@H](CCCCN)C(=O)N[C@@H](CC(N)=O)C(=O)N[C@H](C(=O)NCC(=O)N1CCC[C@H]1C(=O)N[C@@H](CO)C(=O)N[C@@H](CO)C(=O)NCC(=O)N[C@@H](C)C(=O)N1CCC[C@H]1C(=O)N1CCC[C@H]1C(=O)N1CCC[C@H]1C(=O)N[C@@H](CO)C(N)=O)[C@@H](C)O)[C@@H](C)CC)C(=O)O
B4: SEQ ID NO: 22 (peptide)
peptide: Y[Aib]EGTFTSDLSIQK([γGlu-Palmitoyl])DSRAAQDFIEWLKAGGPSSGAPPPS-NH2
modifications: N-terminus assumed
SMILES: CCCCCCCCCCCCCCCC(=O)N[C@@H](CCC(=O)NCCCC[C@H](NC(=O)[C@H](CCC(N)=O)NC(=O)[C@@H](NC(=O)[C@H](CO)NC(=O)[C@H](CC(C)C)NC(=O)[C@H](CC(=O)O)NC(=O)[C@H](CO)NC(=O)[C@@H](NC(=O)[C@H](Cc1ccccc1)NC(=O)[C@@H](NC(=O)CNC(=O)[C@H](CCC(=O)O)NC(=O)C(C)(C)NC(=O)[C@@H](N)Cc1ccc(O)cc1)[C@@H](C)O)[C@@H](C)O)[C@@H](C)CC)C(=O)N[C@@H](CC(=O)O)C(=O)N[C@@H](CO)C(=O)N[C@@H](CCCNC(=N)N)C(=O)N[C@@H](C)C(=O)N[C@@H](C)C(=O)N[C@@H](CCC(N)=O)C(=O)N[C@@H](CC(=O)O)C(=O)N[C@@H](Cc1ccccc1)C(=O)N[C@H](C(=O)N[C@@H](CCC(=O)O)C(=O)N[C@@H](Cc1c[nH]c2ccccc12)C(=O)N[C@@H](CC(C)C)C(=O)N[C@@H](CCCCN)C(=O)N[C@@H](C)C(=O)NCC(=O)NCC(=O)N1CCC[C@H]1C(=O)N[C@@H](CO)C(=O)N[C@@H](CO)C(=O)NCC(=O)N[C@@H](C)C(=O)N1CCC[C@H]1C(=O)N1CCC[C@H]1C(=O)N1CCC[C@H]1C(=O)N[C@@H](CO)C(N)=O)[C@@H](C)CC)C(=O)O
B5: SEQ ID NO: 20 (peptide)
peptide: Y[Aib]EGTFTSDLSIQK([γGlu-henicosanoyl])EKRAA[Aib]EFIEWLKNTGPSSGAPPPS-NH2
modifications: N-terminus assumed
SMILES: CCCCCCCCCCCCCCCCCCCCC(=O)N[C@@H](CCC(=O)NCCCC[C@H](NC(=O)[C@H](CCC(N)=O)NC(=O)[C@@H](NC(=O)[C@H](CO)NC(=O)[C@H](CC(C)C)NC(=O)[C@H](CC(=O)O)NC(=O)[C@H](CO)NC(=O)[C@@H](NC(=O)[C@H](Cc1ccccc1)NC(=O)[C@@H](NC(=O)CNC(=O)[C@H](CCC(=O)O)NC(=O)C(C)(C)NC(=O)[C@@H](N)Cc1ccc(O)cc1)[C@@H](C)O)[C@@H](C)O)[C@@H](C)CC)C(=O)N[C@@H](CCC(=O)O)C(=O)N[C@@H](CCCCN)C(=O)N[C@@H](CCCNC(=N)N)C(=O)N[C@@H](C)C(=O)N[C@@H](C)C(=O)NC(C)(C)C(=O)N[C@@H](CCC(=O)O)C(=O)N[C@@H](Cc1ccccc1)C(=O)N[C@H](C(=O)N[C@@H](CCC(=O)O)C(=O)N[C@@H](Cc1c[nH]c2ccccc12)C(=O)N[C@@H](CC(C)C)C(=O)N[C@@H](CCCCN)C(=O)N[C@@H](CC(N)=O)C(=O)N[C@H](C(=O)NCC(=O)N1CCC[C@H]1C(=O)N[C@@H](CO)C(=O)N[C@@H](CO)C(=O)NCC(=O)N[C@@H](C)C(=O)N1CCC[C@H]1C(=O)N1CCC[C@H]1C(=O)N1CCC[C@H]1C(=O)N[C@@H](CO)C(N)=O)[C@@H](C)O)[C@@H](C)CC)C(=O)O
B6: SEQ ID NO: 21 (peptide)
peptide: Y[Aib]EGTFTSDLSIQK([γGlu-Stearoyl])ESRAAQEFIEWLKAGGPSSGAPPPS-NH2
modifications: N-terminus assumed
SMILES: CCCCCCCCCCCCCCCCCC(=O)N[C@@H](CCC(=O)NCCCC[C@H](NC(=O)[C@H](CCC(N)=O)NC(=O)[C@@H](NC(=O)[C@H](CO)NC(=O)[C@H](CC(C)C)NC(=O)[C@H](CC(=O)O)NC(=O)[C@H](CO)NC(=O)[C@@H](NC(=O)[C@H](Cc1ccccc1)NC(=O)[C@@H](NC(=O)CNC(=O)[C@H](CCC(=O)O)NC(=O)C(C)(C)NC(=O)[C@@H](N)Cc1ccc(O)cc1)[C@@H](C)O)[C@@H](C)O)[C@@H](C)CC)C(=O)N[C@@H](CCC(=O)O)C(=O)N[C@@H](CO)C(=O)N[C@@H](CCCNC(=N)N)C(=O)N[C@@H](C)C(=O)N[C@@H](C)C(=O)N[C@@H](CCC(N)=O)C(=O)N[C@@H](CCC(=O)O)C(=O)N[C@@H](Cc1ccccc1)C(=O)N[C@H](C(=O)N[C@@H](CCC(=O)O)C(=O)N[C@@H](Cc1c[nH]c2ccccc12)C(=O)N[C@@H](CC(C)C)C(=O)N[C@@H](CCCCN)C(=O)N[C@@H](C)C(=O)NCC(=O)NCC(=O)N1CCC[C@H]1C(=O)N[C@@H](CO)C(=O)N[C@@H](CO)C(=O)NCC(=O)N[C@@H](C)C(=O)N1CCC[C@H]1C(=O)N1CCC[C@H]1C(=O)N1CCC[C@H]1C(=O)N[C@@H](CO)C(N)=O)[C@@H](C)CC)C(=O)O

Key:
Experiment in all cases: cell-based or functional assay
human GLP-1 receptor = human GLP-1 receptor (human, UniProt P43220 24-463)
human glucagon receptor = human glucagon receptor (human, UniProt P47871 26-477)
Chain of human glucagon receptor (P47871 26-477): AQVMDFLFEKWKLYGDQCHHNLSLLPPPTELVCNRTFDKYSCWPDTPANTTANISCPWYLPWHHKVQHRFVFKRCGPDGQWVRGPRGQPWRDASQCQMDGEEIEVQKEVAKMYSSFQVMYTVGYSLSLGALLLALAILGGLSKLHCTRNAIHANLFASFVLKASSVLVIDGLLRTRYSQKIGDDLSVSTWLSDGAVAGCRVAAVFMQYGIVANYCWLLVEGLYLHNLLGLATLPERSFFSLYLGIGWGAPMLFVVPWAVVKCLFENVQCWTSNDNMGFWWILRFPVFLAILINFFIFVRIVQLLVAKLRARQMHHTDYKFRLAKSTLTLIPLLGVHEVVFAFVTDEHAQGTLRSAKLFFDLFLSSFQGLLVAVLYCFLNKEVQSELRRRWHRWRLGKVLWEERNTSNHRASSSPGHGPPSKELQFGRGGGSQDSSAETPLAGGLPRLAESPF

human GIP receptor = molecular target: T1, human GIP receptor

Row | Binder | EC50 hGLP-1 R [pM] (human GLP-1 receptor) | EC50 hGLUC R [pM] (human glucagon receptor) | EC50 hGIP R [pM] (human GIP receptor)
1 | B1 | 4 pM | 2890 pM | 5.1 pM
2 | B2 | 8.7 pM | 9740 pM | 9.6 pM
3 | B3 | 4 pM | 708 pM | 13.8 pM
4 | B4 | 32 pM | 11600 pM | 16.6 pM
5 | B5 | 23.2 pM | 3310 pM | 24.5 pM
6 | B6 | 4.8 pM | 10100 pM | 6.4 pM
